Columns and labels:
[1] = target: von Willebrand factor (VWF), purified plasma-derived, multimeric, native (UniProt P04275); experiment: SPR (BIAcore) under laminar flow
[2] = target: von Willebrand factor (VWF), purified plasma-derived, multimeric, native (UniProt P04275); experiment: microtiter plate binding (ELISA format, anti-V5 detection), VWF immobilised, static
[3] = target: von Willebrand factor (VWF), purified plasma-derived, multimeric, native (UniProt P04275); experiment: SPR (BIAcore), VWF injected under flow over immobilised delCUB, equilibrium fit, no EDTA
[4] = target: von Willebrand factor pre-denatured with 1.5 M guanidine-HCl at 37 C for two hours (UniProt P04275); experiment: SPR (BIAcore), guanidine-HCl denatured VWF injected over immobilised delCUB, equilibrium fit
[5] = target: von Willebrand factor (VWF), purified plasma-derived, multimeric, native (UniProt P04275); experiment: SPR (BIAcore), VWF injected under flow over immobilised delCUB, equilibrium fit, in the presence of 10 mM EDTA
[6] = target: von Willebrand factor pre-denatured with 1.5 M guanidine-HCl at 37 C for two hours (UniProt P04275); experiment: SPR (BIAcore), guanidine-HCl denatured VWF injected over immobilised MDTCS, equilibrium fit

ADAMTS13 variant truncated after the 8th TSP-1 repeat (lacking the CUB domains), C-terminal V5-His (from UniProt Q76LX8 75-1191) (enzyme)
fold reduction in affinity against full-length ADAMTS13 [1]: 5 fold
Kd [2]: 70 nM
Kd [3]: 274 nM
Kd [4]: 242 nM
Kd [5]: 468 nM

ADAMTS13 variant truncated after the spacer domain, C-terminal V5-His (from UniProt Q76LX8 75-685) (enzyme)
Kd [2]: 56 nM
Kd [6]: 337 nM
